The target in test [1] is T1, CA125 (Homo sapiens, UniProt Q8WXI7).
T1 construct: human ovarian cancer cell lines OVCAR-3 (high expresser of CA125); endogenous in cells; host or cells: NIH:OVCAR-3
In words: Co-immunoprecipitation of scFvs with anti-CA125 MAbs from transiently transfected NIH:OVCAR-3 cells. It counts as binding. Conditions: transient transfection in NIH:OVCAR-3. The source says:
C) Immunoprecipitation and co-immunoprecipitation of Golgi- and ER-targeted OC125-3.11 scFv from transient transfection of pSTCF.GOLGI-OC125-3.11 and pSTCF.KDEL-OC125-3.11 in NIH:OVCAR-3 human ovarian cancer cells using anti-c-myc, anti-CA125 Mabs OC125 and VK-8, western blot probed with anti-c-myc 9E10 antibody.
D) Immunoprecipitation and co-immunoprecipitation of Golgi- and ER-targeted VK-8-1.9 scFv from transient transfection of pSTCF-GOLGI-VK8-1.9 and pSTCF.KDEL-VK8-1.9 in NIH:OVCAR-3 human ovarian cancer cells using anti-c-myc, anti-CA125 Mabs OC125 and VK-8, Western blot probed with anti-c-myc 9E10 antibody.
E) Immunoprecipitation and co-immunoprecipitation of ER-targeted VK-8-4.5 scFv from transient transfection of pSTCF.KDEL-VK8-4.5 in NIH:OVCAR-3 human ovarian cancer cells using anti-c-myc, anti-CA125 Mabs OC125 and VK-8, western blot prober with anti-c-myc 9E10 antibody. […]
Immunoprecipitation—NIH-OVCAR-3 cells were transiently transfected with the various scFv constructs using commercially available FuGene 6 transfection agent using the manufacturer's instruction. […] Protein concentration was measured by the Bradford method using the Bio-Rad protein assay according to the instruction provided by the manufacturer. […] Agarose or sepharose beads were pelleted and supernatants were analyzed by immunoblots for the presence of the various scFvs.

Test [2] concerns the target T1, CA125. Put plainly: Immunofluorescence of CA125 at the cell surface, transient transfection of OVCAR-3 cells. It counts as cell-based. Conditions: transiently transfected OVCAR-3 cells. The source says:
B) NIH:OVCAR-3 cellswere transiently transfected with pSTCF.Golgi-OC125-3.11 or pSTCF.KDEL-VK-8-1.9 constructs and 48 hrs later the cells were fixed in ice-cold methanol. Expression of scFvs and CA125 was detected using the anti-c-myc A14 polyclonal antibody and anti-CA125 M11 monoclonal antibody. Oregon green anti-rabbit and Texas red anti-mouse secondary antibodies were used.
Anti-CA125 scFvs act therefore act as potent negative modulators of CA125.
Immunofluorescence—Transiently transfected NIH-OVCAR-3 cells or stable NIH:OVCAR-3 clones expressing the various anti-CA125 scFvs were grown on glass slide until a 50% confluence was reached. […] Slides were next washed 3 times in cold PBS, incubated for 30 min at room temperature with anti-mouse or anti-rabbit secondary antibodies coupled to Texas Red or Oregon green (1:1000), washed with PBS and mounted for visualization by fluorescence microscopy. Expression of the various anti-CA125 scFvs and CA125 was detected using anti-c-myc antibody (9E10, 1:500) and OC125 antibody (1:500). Localization of the scFvs was determined by comparing their pattern of expression with that of calreticulin and ADP-ribosylation factor for ER and Golgi localization using anti-calreticulin antibody (1:10000) anti-calreticulin and anti-ADP-ribosylation factor (1:400).

Another test has as its system purified human CA125. In words: CA125 binding analysis by ELISA (periplasmic extracts). Conditions: commercially purified human CA125. The source says:
A) CA125 binding activity of anti-CA125 OC125, VK-8-1.9 and VK-8-4.5 scFvs present in periplasmic extracts of bacteria as well as anti-Bcl2 4D7 scFv compared to parental Mabs OC125 and VK-8 and to PBS and periplasmic extract from bacteria, uninduced, IPTG-induced and controls.
The inventors constructed single-chain antibody libraries derived from the OC125 and VK-8 hybridoma cell lines specific for CA125. The two scFv libraries were screened for CA125 binding activity by ELISA using commercially purified human CA125. […] The inventors hypothesized that if those scFvs (CA125 binders) once expressed intracellularly were localized to and retained within the ER or the Golgi then CA125 antigen would be entrapped during synthesis and thus be unable to localize at cell surface and interact with other intracellular and/or extracellular proteins to achieve its function(s). The scFvs were targeted to the ER or trans-median Golgi by sequence fusion with an Igκ secretion leader and a KDEL signal or fusion with the N-terminal 81 amino acids of human beta 1,4-galactosyltransferase, a protein resident of the trans-medial Golgi (47-49) in addition ot a c-myc tag at the C-terminus.
Binding analysis by ELISA—Periplasmic extracts were prepared as previously described (29). […] The OD was read at 450 ηm in an ELISA plate reader.

B1: OC125-3.11: anti-CA125 single-chain antibody derived from the OC 125 monoclonal antibody, fragment coded by SEQ ID NO 2 (protein)
chain: QVQLQQSGTVLARPGASVKMSLQASGYTFTSYWMHWVKQRPGQGLEWIGAIYPGNSDTSYNQKFKGKAKLTAVTSTSTAYMELSSLTNEDSAVYYCTRSYDWYFDVWGQGTTVTVSSGGGGSGGGGSGGGGSDIELTQSPAILSVSPGERVSFSCRASQSIGTDMHWYQQRTNGSPRLLIKYASESISGIPSRFSGSGSGTDFTLSINSVESEDIADYYCQQSYSWPLTFGAGTKLEIK
modifications: Golgi targeting; VH-linker-VL portion of OC125-3.11
With B1, in the test with CA125 [1], the “co-immunoprecipitation with CA125 using anti-CA125 OC125 and VK-8 MAbs” value is “co-immunoprecipitated”. Also, the “expression of CA125 at the cell surface” value in the test with CA125 [2] is recorded as “lost expression of CA125 at the cell surface”. The “CA125 binding activity by ELISA” value with purified human CA125 is listed as “bound to CA125”.

(Values after patent publication US20060134116A1, “Ca 125 tumor antigen function and uses thereof” (Universite De Sherbrooke, priority 2002, published 2006).)
